# Source: PMC9757036
# B1: T6:P12 (R8-D3) (mixed)
# DNA: AATACATAAGCGCTCCAGGCAAT
# RNA: GCCUGGAGCGC
# modifications: primer nt 1-8 RNA, nt 9-11 DNA, 3' ddC
# B2: T7:P12 (R8-D3) (mixed)
# DNA: AATACATAATCGCTCCAGGCAAT
# RNA: GCCUGGAGCGC
# modifications: primer nt 1-8 RNA, nt 9-11 DNA, 3' ddC
# B3: T8:P9 (D11) (dsDNA)
# DNA 1: AATACATAAACGCTCCAGGCAAT
# DNA 2: GCCTGGAGCGC
# modifications: primer 3' ddC
# B4: T7:P9 (D11) (dsDNA)
# DNA 1: AATACATAATCGCTCCAGGCAAT
# DNA 2: GCCTGGAGCGC
# modifications: primer 3' ddC
# B5: T8:P12 (R8-D3) (mixed)
# DNA: AATACATAAACGCTCCAGGCAAT
# RNA: GCCUGGAGCGC
# modifications: primer nt 1-8 RNA, nt 9-11 DNA, 3' ddC
# B6: T6:P9 (D11) (dsDNA)
# DNA 1: AATACATAAGCGCTCCAGGCAAT
# DNA 2: GCCTGGAGCGC
# modifications: primer 3' ddC
# Target: DNA polymerase alpha catalytic domain (hPolα, hPolαCD) (human, UniProt P09884 335-1257)
# Sequence (P09884 335-1257): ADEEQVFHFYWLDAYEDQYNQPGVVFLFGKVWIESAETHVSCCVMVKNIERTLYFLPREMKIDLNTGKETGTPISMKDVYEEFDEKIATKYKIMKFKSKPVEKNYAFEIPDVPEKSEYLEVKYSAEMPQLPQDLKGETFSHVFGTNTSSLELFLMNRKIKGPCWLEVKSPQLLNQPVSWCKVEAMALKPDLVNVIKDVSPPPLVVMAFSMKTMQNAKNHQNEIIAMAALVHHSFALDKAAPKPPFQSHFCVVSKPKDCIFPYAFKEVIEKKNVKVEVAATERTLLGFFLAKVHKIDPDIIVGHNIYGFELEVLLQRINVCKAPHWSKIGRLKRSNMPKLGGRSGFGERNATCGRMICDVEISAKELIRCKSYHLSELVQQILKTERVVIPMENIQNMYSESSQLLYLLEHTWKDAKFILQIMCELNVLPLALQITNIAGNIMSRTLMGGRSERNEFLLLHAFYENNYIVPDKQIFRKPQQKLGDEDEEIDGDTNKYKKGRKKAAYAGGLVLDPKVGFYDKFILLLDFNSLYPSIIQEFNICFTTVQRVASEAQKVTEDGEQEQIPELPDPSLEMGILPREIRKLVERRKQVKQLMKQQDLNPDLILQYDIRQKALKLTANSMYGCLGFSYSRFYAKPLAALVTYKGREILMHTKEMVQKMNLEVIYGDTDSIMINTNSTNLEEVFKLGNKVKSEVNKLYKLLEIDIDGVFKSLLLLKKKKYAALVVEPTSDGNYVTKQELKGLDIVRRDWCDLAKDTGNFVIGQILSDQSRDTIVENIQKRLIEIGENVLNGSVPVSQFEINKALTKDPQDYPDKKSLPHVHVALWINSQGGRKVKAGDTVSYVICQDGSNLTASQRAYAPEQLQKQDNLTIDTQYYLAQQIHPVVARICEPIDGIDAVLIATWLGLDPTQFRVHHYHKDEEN
# Test: BLI
row,Binder,Kd
1,B1,11.3 ± 0.69 nM
2,B2,198 ± 9.2 nM
3,B3,1880 ± 33 nM
4,B4,1130 ± 94 nM
5,B5,730 ± 51 nM
6,B6,146 ± 17 nM
